Experimental data: patent US20100166741A1 (Genentech, published 2010)

Assays:
[1] = target: T1, miniBR3 displayed on M13 phage (epitope-tagged, fused to gene-8 major coat protein) (human; bacteriophage M13, UniProt Q96RJ3 17-42); experiment: shotgun Ala scan, miniBR3 phage
T1 construct: range 17-42; also called p-miniBR3
From the text: Each “partial miniBR3” template was used as the template for Kunkel mutagenesis with mutagenic oligonucleotides designed to replace the template stop codons with the complementary region of miniBR3, while simultaneously introducing mutations at the desired sites. At the sites of mutation, wild-type codons were replaced with the corresponding shotgun alanine codon (Weiss, supra). Each of these two libraries allowed for mutations at 11 residues in miniBR3 with no mutated positions in common between libraries. Library 1 encoded shotgun codons at positions 17, 18, 20-23, 25, 27, 28, 30, and 33, while library 2 encoded shotgun codons at positions 26, 29, 31, 34, and 36-42. Each library contained 2×10⁹ members, allowing for complete representation of the theoretical diversity (>10⁴-fold excess).
The display selection was included in order to normalize the anti-BR3 antibody-binding selection for expression differences between library members. Phage eluted from each target were propagated in E. coli XL1-blue; amplified phage were used for selection against the same target as in the previous round. After two rounds of selection, 48 individual clones from each library and selection were grown in a 96-well format in 400 L of 2YT medium supplemented with carbenicillin and KO7 helper phage.
F-values were calculated as previously described (Weiss, supra-, Gordon, supra). […] Deleterious mutations have ratios >1, while advantageous mutations have ratios <1; boldface indicates a >10-fold effect.

[2] = target: T2, human FcγRIIa extracellular domain, His-tagged GST fusion (human, UniProt P12318 34-217); experiment: ELISA, captured FcγR-GST, multimeric IgG
T2 construct: extracellular domain; also called hFcgRIIa; CD32A; not shown: C-terminal Gly/His6/GST tag
T2 sequence (looked up): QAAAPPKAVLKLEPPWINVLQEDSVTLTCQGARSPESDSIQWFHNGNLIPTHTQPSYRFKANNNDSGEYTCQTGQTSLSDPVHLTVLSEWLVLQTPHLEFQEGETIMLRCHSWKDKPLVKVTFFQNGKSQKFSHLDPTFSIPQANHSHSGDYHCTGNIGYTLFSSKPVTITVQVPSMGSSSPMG

[3] = target: T3, human FcγRIIb extracellular domain, His-tagged GST fusion (human, UniProt P31994 43-217); experiment: ELISA, captured FcγR-GST, multimeric IgG
T3 construct: extracellular domain; also called hFcgRIIb; CD32B; not shown: C-terminal Gly/His6/GST tag
T3 sequence (looked up): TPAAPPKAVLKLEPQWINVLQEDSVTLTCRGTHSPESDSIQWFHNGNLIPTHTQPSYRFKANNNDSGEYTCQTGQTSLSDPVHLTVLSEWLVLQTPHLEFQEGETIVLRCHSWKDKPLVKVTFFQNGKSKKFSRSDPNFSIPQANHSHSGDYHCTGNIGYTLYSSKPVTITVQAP

[4] = target: T4, human FcγRI extracellular domain, His-tagged GST fusion (human, UniProt P12314 16-292); experiment: ELISA, captured FcγR-GST, monomeric IgG
T4 construct: extracellular domain; also called hFcgRI; FcγRIA; not shown: C-terminal Gly/His6/GST tag

B1: 11G9 (antibody, V domains shown)
VH: DVQLQESGPSLVKPSQTLSLTCSVTGDSITSGYWNWIRKFPGNKLEYMGYISYSGSTYYNPSLKSRISITRDTSKNQFYLQLLSVTTEDTATYYCAGLDGLYWYFDVWGAGTLVTVSS
VL: DIVMTQTPLSLPVSLGDQASISCRSSQSLVHSNGNTYLHWYLQKPGQSPKLLIYKVSNRFSGVPDRFSGSGSGTDFTLKISRVEAEDLGVYFCSQSTHVPPFTFGSGT
notes: also called chimeric 11G9
F value, mutation at BR3 A22 [1]: 45
F value, mutation at BR3 A34 [1]: 32
F value, mutation at BR3 D26 [1]: 8.5
F value, mutation at BR3 E23 [1]: 6.9
F value, mutation at BR3 F25 [1]: 38
F value, mutation at BR3 G36 [1]: 1.8
F value, mutation at BR3 H31 [1]: 2.8
F value, mutation at BR3 L27 [1]: 1.1
F value, mutation at BR3 L28 [1]: 0.4
F value, mutation at BR3 L37 [1]: 0.7
F value, mutation at BR3 L38 [1]: 0.9
F value, mutation at BR3 P18 [1]: 0.5
F value, mutation at BR3 P21 [1]: 40
F value, mutation at BR3 P41 [1]: 1.7
F value, mutation at BR3 R30 [1]: 1.7
F value, mutation at BR3 R39 [1]: 3.1
F value, mutation at BR3 R42 [1]: 0.9
F value, mutation at BR3 T17 [1]: 0.5
F value, mutation at BR3 T40 [1]: 0.5
F value, mutation at BR3 V20 [1]: 1.1
F value, mutation at BR3 V29 [1]: 1
F value, mutation at BR3 V33 [1]: 24

B2: 2.1 (antibody, V domains shown)
VH: EVQLQESGPSLVKPSQTLSLTCSVTGDSITRGYWNWIRKFPGNKLEFMGYINYSGTTYYNPSLKSRISITRDTSKNQYYLQLNSVTTEDTATYYCATPHTYGAMDYWGQGTTLTVSA
VL: DIVLTQSPVSLAVSLGQRATISCRASESVDDYGISFMHWYQQKPGQPPKLLIYRASDLESGIPARFSGSGSGTDFTLTINPVETDDVAIYYCQQTSKDPWTFGGGT
notes: also called chimeric 2.1
F value, mutation at BR3 A22 [1]: 3.2
F value, mutation at BR3 A34 [1]: 62
F value, mutation at BR3 D26 [1]: 6.1
F value, mutation at BR3 E23 [1]: 9.6
F value, mutation at BR3 F25 [1]: 49
F value, mutation at BR3 G36 [1]: 14
F value, mutation at BR3 H31 [1]: 0.6
F value, mutation at BR3 L27 [1]: 0.8
F value, mutation at BR3 L28 [1]: 0.1
F value, mutation at BR3 L37 [1]: 0.1
F value, mutation at BR3 L38 [1]: 0.9
F value, mutation at BR3 P18 [1]: 0.5
F value, mutation at BR3 P21 [1]: 1.9
F value, mutation at BR3 P41 [1]: 0.7
F value, mutation at BR3 R30 [1]: 10
F value, mutation at BR3 R39 [1]: 0.5
F value, mutation at BR3 R42 [1]: 1.8
F value, mutation at BR3 T17 [1]: 0.6
F value, mutation at BR3 T40 [1]: 0.2
F value, mutation at BR3 V20 [1]: 3
F value, mutation at BR3 V29 [1]: 0.5
F value, mutation at BR3 V33 [1]: 10

B3: Hu9.1RF IgG1 2% G0-F (antibody)
heavy: not shown
light: DIQMTQSPSSLSASVGDRVTITCKSSQSLLYSSNQNNYLAWYQQKPGKAPKLLIYWASTRESGVPSRFSGSGSGTDFTLTISSLQPEDFATYYCQQYYTYPYTFGQGTKVEIKRTVAAPSVFIFPPSDEQLKSGTASVVCLLNNFYPREAKVQWKVDNALQSGNSQESVTEQDSKDSTYSLSSTLTLSKADYEKHKVYACEVTHQGLSSPVTKSFNRGEC
modifications: 2% G0-F (afucosylated) Fc glycan content
notes: Same protein as Hu9.1RF IgG1; glycoform composition; also called 2% G0-F GLP-Hu9.1RF IgG1; 2% afucosylated Hu9.1RF IgG1
EC50 [2]: 0.3 µg/mL
EC50 [3]: 0.96 µg/mL
EC50 [4]: 0.00392 µg/mL

B4: Hu9.1RF IgG1 6% G0-F (antibody)
heavy: not shown
light: DIQMTQSPSSLSASVGDRVTITCKSSQSLLYSSNQNNYLAWYQQKPGKAPKLLIYWASTRESGVPSRFSGSGSGTDFTLTISSLQPEDFATYYCQQYYTYPYTFGQGTKVEIKRTVAAPSVFIFPPSDEQLKSGTASVVCLLNNFYPREAKVQWKVDNALQSGNSQESVTEQDSKDSTYSLSSTLTLSKADYEKHKVYACEVTHQGLSSPVTKSFNRGEC
modifications: expected 6% G0-F (determined 6%)
notes: Mixture of 37% G0-F and 2% G0-F Hu9.1RF IgG1
EC50 [2]: 0.23 µg/mL
EC50 [3]: 0.91 µg/mL
EC50 [4]: 0.00412 µg/mL

B5: Hu9.1RF IgG1 20% G0-F (antibody)
heavy: not shown
light: DIQMTQSPSSLSASVGDRVTITCKSSQSLLYSSNQNNYLAWYQQKPGKAPKLLIYWASTRESGVPSRFSGSGSGTDFTLTISSLQPEDFATYYCQQYYTYPYTFGQGTKVEIKRTVAAPSVFIFPPSDEQLKSGTASVVCLLNNFYPREAKVQWKVDNALQSGNSQESVTEQDSKDSTYSLSSTLTLSKADYEKHKVYACEVTHQGLSSPVTKSFNRGEC
modifications: expected 20% G0-F (determined 23%)
notes: as for B4
EC50 [2]: 0.17 µg/mL
EC50 [3]: 0.82 µg/mL
EC50 [4]: 0.00374 µg/mL

B6: Hu9.1RF IgG1 4% G0-F (antibody)
heavy: not shown
light: DIQMTQSPSSLSASVGDRVTITCKSSQSLLYSSNQNNYLAWYQQKPGKAPKLLIYWASTRESGVPSRFSGSGSGTDFTLTISSLQPEDFATYYCQQYYTYPYTFGQGTKVEIKRTVAAPSVFIFPPSDEQLKSGTASVVCLLNNFYPREAKVQWKVDNALQSGNSQESVTEQDSKDSTYSLSSTLTLSKADYEKHKVYACEVTHQGLSSPVTKSFNRGEC
modifications: expected 4% G0-F (determined 3%)
notes: as for B4
EC50 [2]: 0.26 µg/mL
EC50 [3]: 0.95 µg/mL
EC50 [4]: 0.00373 µg/mL

B7: Hu9.1RF IgG1 10% G0-F (antibody)
heavy: not shown
light: DIQMTQSPSSLSASVGDRVTITCKSSQSLLYSSNQNNYLAWYQQKPGKAPKLLIYWASTRESGVPSRFSGSGSGTDFTLTISSLQPEDFATYYCQQYYTYPYTFGQGTKVEIKRTVAAPSVFIFPPSDEQLKSGTASVVCLLNNFYPREAKVQWKVDNALQSGNSQESVTEQDSKDSTYSLSSTLTLSKADYEKHKVYACEVTHQGLSSPVTKSFNRGEC
modifications: expected 10% G0-F (determined 8%)
notes: as for B4
EC50 [2]: 0.24 µg/mL
EC50 [3]: 0.88 µg/mL
EC50 [4]: 0.00391 µg/mL

B8: V3-1 (antibody, V domains shown)
VH: EVQLVESGGGLVQPGGSLRLSCAASGFTISSNSIHWVRQAPGKGLEWVAWITPSDGNTDYADSVKGRFTISADTSKNTAYLQMNSLRAEDTAVYYCARRVCYNRLGVCAGGMDYWGQGTLVTVSS
VL: DIQMTQSPSSLSASVGDRVTITCRASQDVSTAVAWYQQKPGKAPKLLIYSASFLYSGVPSRFSGSGSGTDFTLTISSLQPEDFATYYCQQSRITPPTFGQGTKVEIKR
F value, mutation at BR3 A22 [1]: 0.7
F value, mutation at BR3 A34 [1]: 13
F value, mutation at BR3 D26 [1]: 8.7
F value, mutation at BR3 E23 [1]: 2.4
F value, mutation at BR3 F25 [1]: 21
F value, mutation at BR3 G36 [1]: 0.7
F value, mutation at BR3 H31 [1]: 0.1
F value, mutation at BR3 L27 [1]: 1.4
F value, mutation at BR3 L28 [1]: 98
F value, mutation at BR3 L37 [1]: 0.7
F value, mutation at BR3 L38 [1]: 1.4
F value, mutation at BR3 P18 [1]: 0.8
F value, mutation at BR3 P21 [1]: 0.6
F value, mutation at BR3 P41 [1]: 1.6
F value, mutation at BR3 R30 [1]: 20
F value, mutation at BR3 R39 [1]: 0.4
F value, mutation at BR3 R42 [1]: 0.9
F value, mutation at BR3 T17 [1]: 0.5
F value, mutation at BR3 T40 [1]: 0.6
F value, mutation at BR3 V20 [1]: 0.9
F value, mutation at BR3 V29 [1]: 92
F value, mutation at BR3 V33 [1]: 14
